Reference: publication PMC9668932

Target: heat shock protein HSP 90-beta, full length, His6-tagged (human) (UniProt P08238)
Test: cryo-EM structure; ternary Hsp90-XAP2-AHR complex, co-expressed in Sf9 and co-purified, with indirubin at 5x molar excess; 20 mM Bis-Tris-HCl pH 7.0, 50 mM NaCl, 10 mM KCl, 10 mM MgCl2, 20 mM Na2MoO4, 2 mM BME; global map 2.85 Å, focused map 4.07 Å

Chain of heat shock protein HSP 90-beta, full length, His6-tagged, P08238 1-724 (natural protein; other documents disagree on this pair) (P08238 whole entry): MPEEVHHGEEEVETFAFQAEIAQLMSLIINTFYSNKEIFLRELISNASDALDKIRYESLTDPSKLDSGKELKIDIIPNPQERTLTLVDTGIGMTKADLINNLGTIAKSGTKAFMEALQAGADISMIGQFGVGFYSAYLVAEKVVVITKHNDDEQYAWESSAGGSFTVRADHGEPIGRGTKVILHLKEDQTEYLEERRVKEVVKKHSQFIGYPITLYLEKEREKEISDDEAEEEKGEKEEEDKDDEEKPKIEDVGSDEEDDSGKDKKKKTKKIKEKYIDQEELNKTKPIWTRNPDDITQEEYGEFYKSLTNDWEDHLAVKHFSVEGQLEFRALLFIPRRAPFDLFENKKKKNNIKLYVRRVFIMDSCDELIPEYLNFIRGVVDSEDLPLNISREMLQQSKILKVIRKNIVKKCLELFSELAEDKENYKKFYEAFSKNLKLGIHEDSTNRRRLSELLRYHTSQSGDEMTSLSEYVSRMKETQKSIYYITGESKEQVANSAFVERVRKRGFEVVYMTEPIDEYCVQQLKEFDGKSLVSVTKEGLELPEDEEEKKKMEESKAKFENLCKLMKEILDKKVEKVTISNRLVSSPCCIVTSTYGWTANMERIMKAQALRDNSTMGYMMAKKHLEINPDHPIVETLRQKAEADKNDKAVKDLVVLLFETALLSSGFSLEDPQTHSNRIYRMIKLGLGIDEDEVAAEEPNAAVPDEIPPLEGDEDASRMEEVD

**Q.** How did the stoichiometry N turn out when “heat shock protein HSP 90-beta, full length, His6-tagged, P08238 1-724 (natural protein; other documents disagree on this pair)” was run?
**A.** 2
